{
  "source": "patent US20080138335A1",
  "about": "(Kyowa Kirin, published 2008)",
  "binders": {"B1": {"name": "341-G [2/2/1/2] (antibody)", "heavy": "QVQLQQSGPGLVKPSQTLSLTCAISGDSVSSNSATWNWIRQSPSRDLEWLGRTYYRSKWYRDYVGSVKSRIIINPDTSNNQFSLQLNSVTPEDTAIYYCTRAQWLGGDYPYYYSMDVWGQGTTVTVSS", "VL": "EIVLTQSPATLSLSPGERATLSCRASQSVSSYLAWYQQKPGQAPRLLIYDASNRATGIPARFSGSGSGTDFTLTISSLEPEDFAVYYCQQRSNTFGPGTKVDIK", "notes": "also called IgG[2/2/1/2]; N5KG2212; not shown: human IgG2 heavy chain constant region, CH1 and hinge domains (EU 118-237), from vector N5KG2; human IgG1 heavy chain constant region, CH2 domain (EU 238-340), from vector N5KG1 by way of N5KG2211; human IgG2 heavy chain constant region, CH3 domain (EU 341-446), from vector N5KG2"}, "B2": {"name": "341-G [2/2/2/1] (antibody)", "heavy": "B1 heavy", "VL": "B1 VL", "notes": "also called IgG[2/2/2/1]; N5KG2221; not shown: human IgG2 heavy chain constant region, CH1, hinge and CH2 domains (EU 118-340), from vector N5KG2; human IgG1 heavy chain constant region, CH3 domain (EU 341-446), from vector N5KG1"}, "B3": {"name": "4D11-G3[R435H] (antibody, V domains shown)", "VH": "QLQLQESGPGLLKPSETLSLTCTVSGGSISSPGYYGGWIRQPPGKGLEWIGSIYKSGSTYHNPSLKSRVTISVDTSKNQFSLKLSSVTAADTAVYYCTRPVVRYFGWFDPWGQGTLVTVSS", "VL": "AIQLTQSPSSLSASVGDRVTITCRASQGISSALAWYQQKPGKAPKLLIYDASNLESGVPSRFSGSGSGTDFTLTISSLQPEDFATYYCQQFNSYPTFGQGTKVEIK", "notes": "One-amino acid variant of 4D11-G3; also called IgG3[R435H]; N5KG3-R435H; not shown: human IgG3 heavy chain constant region, from vector N5KG3"}},
  "molecular_target": "T1, CD40 expressed on Ramos [ATCC] cells (UniProt P25942 21-277, limits assumed)",
  "T1 construct": "whole, on cells; Target of all flow cytometry and CD95 assays; endogenous CD40 on the Ramos cell line",
  "T1 sequence (P25942 21-277 limits assumed)": "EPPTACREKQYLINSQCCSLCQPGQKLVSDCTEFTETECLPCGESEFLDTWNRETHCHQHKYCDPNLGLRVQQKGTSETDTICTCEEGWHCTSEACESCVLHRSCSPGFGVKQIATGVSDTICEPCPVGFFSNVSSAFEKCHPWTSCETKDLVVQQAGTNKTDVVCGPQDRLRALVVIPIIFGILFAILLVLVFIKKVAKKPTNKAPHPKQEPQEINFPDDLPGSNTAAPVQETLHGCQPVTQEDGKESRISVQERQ",
  "assay": "flow cytometry (FACS) on Ramos cells expressing CD40, R-PE anti-human antibody",
  "data": [
    {"binder": "B1", "values": [
      {"measurement": "binding result", "value": "binds"}
    ]},
    {"binder": "B2", "values": [
      {"measurement": "binding result", "value": "binds"}
    ]},
    {"binder": "B3", "values": [
      {"measurement": "binding result", "value": "binds"}
    ]}
  ]
}
